Test results reported in patent publication US20230151068A1.

What follows are binders tested against biotinylated His-Avi-TEAD (194-411) (UniProt P28347) (assay: SSM screen, enrichment after two rounds of sorting).

enrichment score	Binder
-1.28	GSPDEYIEWAKECCKKGDIQCCLRYFEESGDPNVMLICLFCP (designed binder) [R07W variant of SEQ ID NO: 1]
-1.01	GSPDEYIEYAKECCKKGDIQCCLRYFEESGDPNVMLICLFCP (designed binder) [R07Y variant of SEQ ID NO: 1]
-10.9	GSPDEYYERAKECCKKGDIQCCLRYFEESGDPNVMLICLFCP (designed binder) [I05Y variant of SEQ ID NO: 1]
-3.6	GSPDEYIERAKECCKKGEIQCCLRYFEESGDPNVMLICLFCP (designed binder) [D16E variant of SEQ ID NO: 1]
-5.4	GSPDEYIERAKECCKKGDGQCCLRYFEESGDPNVMLICLFCP (designed binder) [I17G variant of SEQ ID NO: 1]
0.7	GSPDEYIERAKECCGKGDIQCCLRYFEESGDPNVMLICLFCP (designed binder) [K13G variant of SEQ ID NO: 1]
-0.44	GSPDEYIERAKECCHKGDIQCCLRYFEESGDPNVMLICLFCP (designed binder) [K13H variant of SEQ ID NO: 1]
-3.72	GSPDEYIERAKPCCKKGDIQCCLRYFEESGDPNVMLICLFCP (designed binder) [E10P variant of SEQ ID NO: 1]
-3.33	GSYDEYIERAKECCKKGDIQCCLRYFEESGDPNVMLICLFCP (designed binder) [P01Y variant of SEQ ID NO: 1]
-2.33	GSPDEYIYRAKECCKKGDIQCCLRYFEESGDPNVMLICLFCP (designed binder) [E06Y variant of SEQ ID NO: 1]
-0.19	GSPDEYIERAKECCKKGDIDCCLRYFEESGDPNVMLICLFCP (designed binder) [Q18D variant of SEQ ID NO: 1]
-0.43	GSPDEYPERAKECCKKGDIQCCLRYFEESGDPNVMLICLFCP (designed binder) [I05P variant of SEQ ID NO: 1]
1	GSPDEYIERAKECCKEGDIQCCLRYFEESGDPNVMLICLFCP (designed binder) [K14E variant of SEQ ID NO: 1]
-2.03	GSPDEYIERAKECCKKGDIGCCLRYFEESGDPNVMLICLFCP (designed binder) [Q18G variant of SEQ ID NO: 1]
-0.36	GSPDYYIERAKECCKKGDIQCCLRYFEESGDPNVMLICLFCP (designed binder) [E03Y variant of SEQ ID NO: 1]
0.43	GSPDEYIERAKECCDKGDIQCCLRYFEESGDPNVMLICLFCP (designed binder) [K13D variant of SEQ ID NO: 1]
1.27	GSPDEYIERAKECCKDGDIQCCLRYFEESGDPNVMLICLFCP (designed binder) [K14D variant of SEQ ID NO: 1]
-0.84	GSPDEYIERAKECCKKGDIECCLRYFEESGDPNVMLICLFCP (designed binder) [Q18E variant of SEQ ID NO: 1]
-1.58	GSPDEYIERAKWCCKKGDIQCCLRYFEESGDPNVMLICLFCP (designed binder) [E10W variant of SEQ ID NO: 1]
1.99	GSPDEYIERAKECCKKEDIQCCLRYFEESGDPNVMLICLFCP (designed binder) [G15E variant of SEQ ID NO: 1]

enrichment score	Binder
-3.35	GSPDEYIERYKECCKKGDIQCCLRYFEESGDPNVMLICLFCP (designed binder) [A08Y variant of SEQ ID NO: 1]
-4.96	GSPDEYIERAYECCKKGDIQCCLRYFEESGDPNVMLICLFCP (designed binder) [K09Y variant of SEQ ID NO: 1]
-0.26	GSPDEYIERAKECCKKDDIQCCLRYFEESGDPNVMLICLFCP (designed binder) [G15D variant of SEQ ID NO: 1]
-9.42	GSPDEYIERAKECCKKGDDQCCLRYFEESGDPNVMLICLFCP (designed binder) [I17D variant of SEQ ID NO: 1]
-2.11	GSPPEYIERAKECCKKGDIQCCLRYFEESGDPNVMLICLFCP (designed binder) [D02P variant of SEQ ID NO: 1]
0.53	GSPDEYIERAKECCKHGDIQCCLRYFEESGDPNVMLICLFCP (designed binder) [K14H variant of SEQ ID NO: 1]
-2.84	GSPDEYIPRAKECCKKGDIQCCLRYFEESGDPNVMLICLFCP (designed binder) [E06P variant of SEQ ID NO: 1]
-4.7	GSPDEYIERPKECCKKGDIQCCLRYFEESGDPNVMLICLFCP (designed binder) [A08P variant of SEQ ID NO: 1]
-1.63	GSPYEYIERAKECCKKGDIQCCLRYFEESGDPNVMLICLFCP (designed binder) [D02Y variant of SEQ ID NO: 1]
-0.1	GSPDEYIERAKECCEKGDIQCCLRYFEESGDPNVMLICLFCP (designed binder) [K13E variant of SEQ ID NO: 1]
-5.46	GSPDEYIERWKECCKKGDIQCCLRYFEESGDPNVMLICLFCP (designed binder) [A08W variant of SEQ ID NO: 1]
-0.4	GSPDPYIERAKECCKKGDIQCCLRYFEESGDPNVMLICLFCP (designed binder) [E03P variant of SEQ ID NO: 1]
-0.3	GSPDEYIERAKECCKKGDEQCCLRYFEESGDPNVMLICLFCP (designed binder) [I17E variant of SEQ ID NO: 1]
1.11	GSPDEYIERAKECCKGGDIQCCLRYFEESGDPNVMLICLFCP (designed binder) [K14G variant of SEQ ID NO: 1]
-4.41	GSPDEYIERAWECCKKGDIQCCLRYFEESGDPNVMLICLFCP (designed binder) [K09W variant of SEQ ID NO: 1]
-9.54	GSPDEYIERAKECCKKGGIQCCLRYFEESGDPNVMLICLFCP (designed binder) [D16G variant of SEQ ID NO: 1]
-4.5	GSPDEYIERAPECCKKGDIQCCLRYFEESGDPNVMLICLFCP (designed binder) [K09P variant of SEQ ID NO: 1]
-2.49	GSPDEYIEPAKECCKKGDIQCCLRYFEESGDPNVMLICLFCP (designed binder) [R07P variant of SEQ ID NO: 1]
1.02	GSPDEPIERAKECCKKGDIQCCLRYFEESGDPNVMLICLFCP (designed binder) [Y04P variant of SEQ ID NO: 1]
-5.61	GSPDEYIERAKYCCKKGDIQCCLRYFEESGDPNVMLICLFCP (designed binder) [E10Y variant of SEQ ID NO: 1]
